From PMC4565128

Biological target: Aldehyde dehydrogenase 7A1 (full-length recombinant human cytosolic ALDH7A1 isoform 2) (human)
Test: SAXS

## Aldehyde dehydrogenase 7A1 (full-length recombinant human cytosolic ALDH7A1 isoform 2) (enzyme)
  stoichiometry N: 4
